According to the DeepSol protein solubility set:

Assay: soluble on expression in E. coli; label from the status in PepcDB or PDB records

Sequence | soluble on expression in E. coli
MAHHHHHHMGRASKDKRDIYYRKAKEEGYRARSAYKLLQLHEEFGILRREEIRTGVVDLCAAPGSWSQVLSNHLCGSQPGSAAEACEGDEAINSEASQRPRIVAVDLQEMMPIDGVQLLQGDITSEWTAREIIRLLNGDSSSVPECSDATALSTAGAINDFNNGRGNNVSEEGKSSQQRSDCGVGLMNERNNASECVDGDNNNNNSNNNDDRNGGDAGASTRPVAGRKADLVVCDGAPDVTGMHELDEYLQHHLLLAALNITTFVLRRGGTFVTKMFRGPNTPFLVAKAEVFFRQVTIAKPKSSRNASMEAFMVCQNYDPPASYQPSFERPLTQTTSCFTPAAPALHLAAVDAQRMSSDNVNNGELHHSGVTDIVDEAYAVESVIVPFLACGDLTGYDADMCYDRGESDVVLPPVQPPLQAPYIAISEAVKERTKRQRVG | not soluble
MGSDKIHHHHHHMKASLEQSSLPCRRFGRTGLSMPVLSLGGMRFQQSWTDLEAEVITSESQQLLKDILERAVACGFHHVETARHYGSSERQLGWALRDVLDPQRLLQSKVPPREDPKVFEAELALSFERLGCERLDLVAIHGLNLSEHLEQTLRPGGCMDVLRRWQGDGRIGHVGFSTHGPTDLIVQAIETDAFDYVNLHWYFIYQDNDPALDAAARHDLGVFIISPTDKGGHLHSPSSQLLELCAPLHPIVFNDLFCLQDPRVHTISVGAARPSDLDRHLEAVDLLQSAAELLPPVQQRLVDAAQLALGEAWWTSWQRGLPPWQESPGEINLPILLWLHNLVEAWGMEGYAKARYGLLGSGSHWFPGANAEALDADVSETALREVLVNSPWCDQIPGLLRRLRNRLGGHPQQRLTSV | not soluble
HRWITRPKFTHFDLHTLNWDLCLTQANHKSNLALEMLKMLLDSLPETVEKIQTALGQNDQATMLSTIHKLHGASCYCGVPTTQRLCQEIESALKRQTPVEDLEPEILELLDELTKVESAVKQVLSQLSAEITDDQKNGLL | soluble
MGSDKIHHHHHHMATALYTANDFILISLPQNAQPVTAPGSKTDSWFNETLIGGRAFVSDFKIPEFKIGSLDTLIVESEELSKVDNQIGASIGKIIEILQGLNETSTNAYRTLPINNMPVPEYLENFQWQTRKFKLDKSIKDLITLISNESSQLDADVRATYANYNSAKTNLAAAERKKTGDLSVRSLHDIVKPEDFVLNSEHLTTVLVAVPKSLKSDFEKSYETLSKNVVPASASVIAEDAEYVLFNVHLFKKNVQEFTTAAREKKFIPREFNYSEELIDQLKKEHDSAASLEQSLRVQLVRLAKTAYVDVFINWFHIKALRVYVESVLRYGLPPHFNIKIIAVPPKNLSKCKSELIDAFGFLGGNAFMKDKKGKINKQDTSLHQYASLVDTEYEPFVMYIINL | not soluble
MRVLVLCTHNSARSQMAEAWLKHFARELGVDLEVHSAGTEKAFVKEEAKRVMAEVGLDLSGHFSKTLLEVPDPWDFGLVLTVCDQAKEACPAYPARTERRHVSFPDPTGKPLEEWRKVRDALGRMARFLVEALKEGRLPSDEELRQAARL | soluble
MAHHHHHHMDKLISNNKLKLSVVLLGGLCSLAYYHLKNKFHLSQFCFSKKWFSEFSIMWPGQAFSLKIKKILYETKSKYQNVLVFESTTYGKVLVLDGVIQLTEKDEFAYHEMMTHVPMTVSKEPKNVLVVGGGDGGIIRELCKYKSVENIDICEIDETVIEVSKIYFKNISCGYEDKRVNVFIEDASKFLENVTNTYDVIIVDSSDPIGPAETLFNQNFYEKIYNALKPNGYCVAQCESLWIHVGTIKNMIGYAKKLFKKVEYANISIPTYPCGCIGILCCSKTDTGLTKPNKKLESKEFADLKYYNYENHSAAFKLPAFLLKEIENI | soluble
MSLKLYKEIINLIDNHQATMVEQLHQFCEINSGTTNLTGLAIMAETLCSAFKPIADTTELITLPPLSVIDMTGNTVMQSCGDVLFISKRPHLKRRILLSGHMDTVYSASNPFQKLSYLDANQINGPGVADMKGGLIVILHALAAFENTRFAEDMGWDVLINSDEEIGSPTSGSLFNKLAHRYQAALVYEPAMTPNGTLAKNRKGSGKLTLVATGRAAHAGRAFDEGRNAICYLAEAITAVHALNGQKNGVTINVGKIAGGEALNVVPDKAVAQLDIRISLPEDEIWVRNELNKIIKQLERPDYSLNVHGTFGRPVKRICAGTERLFHRIQKIGEALGLTIDWKDSGGCCDGNNLAHYGLPVLDTLGVRGGNIHSSDEYILLDSLSERAALSALLLIDLAQGGLEDLIKEGHHHHHH | soluble
MVLSIERKRAIVQYVKSRKIATVSELAKHFEVHEATIRRDLTSLEKDKKLKRTHGGVMIEEKVVSEPNWKKRSEVRYEEKQRIATLAATMVKDGDTIILDAGTTTGHIATALKDRSKLTVITNDINVASIMRFSPSKVIVTGGVIYPETFILNGMITSGTLQSIHVHKAFVTTPALDIDKGLMHYDEYLIPAKQQMLHSADEVILVTDHTKFGRISLYKYAALDEISSIITGKEIDPVLKEQFEEKGMQIYTTLEHHHHHH | soluble
MGSDKIHHHHHHVSKPHYKTTNWKQYNQALINRGSLTFWIDEDAIAKWKAKVEQPKKGRPRVFSDLAITTALMVKRIFSMPLRALQGFINSVFKLGDIPLSCPHYTCISKRAKTVNIAFKTKTRGAIKHLAIDSTGLKVYGEGEWKVKKHGTDGKRRVWRKLHIAVDTHSHEIIAAELSLSGVTDAEVMPNLLKQTHRKIRNISGDGAYDTKACHEAVRRKRALVLIPPREGAALWEQGHPRNLAVSWQQLHGSNKQWKKRYGYHRRSISETAMYRIKQLLGGTLSMRNYNAQVGETYAMIRALNKLTGLGMPETHYVA | not soluble
MSLTDDRYTVISADCHAGADLLDYRPYLAKRHHDAFDAWAATYVNPYEDLLADTADRNWNSERRLAELAADGIVAEVVFPNTIPPFFPSASLMAPAPTAAEFEQRWAGLRAHNRWLADFCAAAPGRRAGVFQILLNDVEEAVKEISWAAGAGLRGGLLLPGTPPGSGLPELYSKAYDPIWAVCEELDVPVNHHAGSASPPLGDEPAARAVFMVETTWFSHRALWHLVFGGAFRRHPGLRLVLTEQGSGWIPGVLDMLDYYHGRLVAAGPKSATAEAKFGAGLDRAMGKGPSEVWRDNCFVGASFMRPHEVPLRDRIGLDKIMWGSDYPHDEGTYPYSREGLRIAYAGLPRTEIAAMAGGNAARVYGFDLSEGHHHHHH | soluble
SSGSKSSNSSAKKSAGKPQQGGDLVVGSIGEPTLFNSLYSTDDASTDIENMLYSFLTKTDEKLNVKLSLAESIKELDGGLAYDVKIKKGVKFHDGKELTADDVVFTYSVPLSKDYKGERGSTYEMLKSVEKKGDYEVLFKLKYKDGNFYNNALDSTAILPKHILGNVPIADLEENEFNRKKPIGSGPFKFKEWKQGQYIKLEANDDYFEGRPYLDTVTYKVIPDANAAEAQLQAGDINFFNVPATDYKTAEKFNNLKIVTDLALSYVYIGWNEKNELFKDKKVRQALTTALDRESIVSQVLDGDGEVAYIPESPLSWNYPKDIDVPKFEYNEKKAKQMLAEAGWKDTNGDGILDKDGKKFSFTLKTNQGNKVREDIAVVVQEQLKKIGIEVKTQIVEWSALVEQMNPPNWDFDAMVMGWSLSTFPDQYDIFHSSQIKKGLNYVWYKNAEADKLMKDAKSISDRKQYSKEYEQIYQKIAEDQPYTFLYYPNNHMAMPENLEGYKYHPKRDLYNIEKWWLAK | soluble
METLLLVQLFHELALKGKNRPFFLKRAKAHVRRALKGLGVALEGEWPMALLFRLPEEAWPEAKARLQDTLGVERFARVHRTPPDLEALKAALEKALEGQAFGSFRITAKRSDKAFPLTSPEIERALGAFVKGKTGAPVRLKGAEREFVVRVLPGAALLEVERHPGPGGLPPGVSGRVVALLSGGIDSPVAAYRLMRRGAEVVLVHFHPFPLLSGASREKAKALAERLARFQHRLRLHLVPFSEVQRHIIVEAPTAYRVVLYRRYMLRIAEAIAREEGALALCTGDSLGQVASQTLENLHAVNQAATLPVFRPLIGWDKEEIVAEAQRIGTYATSILPDEECCTLFAPKHPVTRARLEVVLETEARLPTEELLALALKEREVLTYTWPGKPLPEEPEGAFIMEHGPA | soluble
SLARSPSVSAGTRPHAGEHTDTSPISSAVSAPSPSSLPLVFSPQPSVSSSSLPLSSSSLARVSSSPQPSASSASLPLSSSRQSGEALGSSGAASSESSRERQGKLRLRHPRQRKPFLLQVLHAEHRCHNPRELARVQRAGGSIFAGRVGGVLEPSRSVGDFDVKDAQPPGVLIATPEVCRVKVRKPTLVLLGTDGVWDMLCSADVLACVKKVTQFWQLLLAAFRERMEELQEEATEKQENEKERGEGDQVRESSGNGKG | soluble
